# In paper PMC6327041 (Nature Communications, 2019):
# Biological target: T1, KDM5A1-797 (Homo sapiens, UniProt P29375)
# T1 construct: KDM5A1-797 was cloned into a pFASTBAC HTA vector; His (N, cleaved yes); made in house; host or cells: Sf21 insect cells (baculovirus)
# T1 sequence (P29375 1-797): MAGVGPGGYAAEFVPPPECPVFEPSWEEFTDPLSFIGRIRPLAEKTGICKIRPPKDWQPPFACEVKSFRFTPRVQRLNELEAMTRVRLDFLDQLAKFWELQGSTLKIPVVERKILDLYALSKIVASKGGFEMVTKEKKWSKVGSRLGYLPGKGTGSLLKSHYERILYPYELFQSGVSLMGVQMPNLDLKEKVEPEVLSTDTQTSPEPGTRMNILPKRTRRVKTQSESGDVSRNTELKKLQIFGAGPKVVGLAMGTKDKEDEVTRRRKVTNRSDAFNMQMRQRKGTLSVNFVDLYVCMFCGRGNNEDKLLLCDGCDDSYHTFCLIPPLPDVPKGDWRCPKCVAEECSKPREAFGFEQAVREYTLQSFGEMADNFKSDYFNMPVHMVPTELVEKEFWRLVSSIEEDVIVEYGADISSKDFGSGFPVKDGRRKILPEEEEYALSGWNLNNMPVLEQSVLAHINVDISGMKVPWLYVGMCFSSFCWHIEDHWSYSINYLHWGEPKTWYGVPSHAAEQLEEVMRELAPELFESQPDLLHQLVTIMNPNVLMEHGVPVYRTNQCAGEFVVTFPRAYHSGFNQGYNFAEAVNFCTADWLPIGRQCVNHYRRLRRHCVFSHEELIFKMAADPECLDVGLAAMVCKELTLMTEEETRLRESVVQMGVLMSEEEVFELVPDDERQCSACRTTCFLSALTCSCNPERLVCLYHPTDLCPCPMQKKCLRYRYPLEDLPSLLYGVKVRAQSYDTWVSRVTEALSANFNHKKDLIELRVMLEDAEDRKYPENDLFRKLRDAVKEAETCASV
# Test: Lysine crosslinking MS
# Settings: H3 effector peptide 40 µM, BS^3-H12/D12, 1 h, 4 °C
# Method: Hundred micrograms of KDM5A1-797 was crosslinked with 1 mM BS^3-H12 for 1 h at 4 °C. […] After quenching with 50 mM Tris-base, the light and heavy crosslinked reaction mixtures were combined and precipitated with ice cold acetone. Crosslinked proteins were pelleted by spinning at 21,000 × g, the supernatant was removed, and the pellet was washed once with cold acetone. The precipitate was brought up in 8 M Urea, 10 mM TCEP, heated at 56 °C for 20 min, and then alkylated with 15 mM iodoacetamide (45 min at room temperature). The sample was diluted to 2 M Urea and digested […] with 0.8 µg trypsin for 4 h at 37 °C. A second aliquot of trypsin was then added and digestion was allowed to proceed overnight. […]
# LC-MS analysis was performed with a Q-Exactive Plus mass spectrometer (Thermo Scientific) coupled with a nanoelectrospray ion source (Easy-Spray, Thermo) and NanoAcquity UPLC system (Waters). […] Precursor MS scans were measured in the Orbitrap scanning from 350 to 1500 m/z (mass resolution: 70,000). The ten most intense triply charged or higher precursors were isolated in the quadrupole (isolation window: 4 m/z), dissociated by HCD (normalized collision energy: 23), and the product ion spectra were measured in the Orbitrap (mass resolution: 17,500). […]
# For quantitative analysis, precursor ion filtering in Skyline 4.1 was used to extract light:heavy crosslinked precursor ion signals. […]
substance,measurement,value
"H3: unmodified N-terminal H3 tail 10mer peptide (H3 Ala1-Ser10), PHD1 effector ligand",changes in lysine crosslinks,minor changes in crosslink occupancy and distribution
